In the DeepSol protein solubility set:

Assay: soluble on expression in E. coli; label from the status in PepcDB or PDB records

Sequence | soluble on expression in E. coli
MSLKKSPLTIVHLTDIHYDPEYVVGVNADCKAEACCRTLPDLAPATPETAAGYWSDYRDCDTPWHGVVDVMEHIRRQHPKIDAIYFTGDIVHHFTWNTSIETNEGAMRQVFDLMKRVFPGVPLYPVLGNHESHPANLYAPHDVEASYRMDYLYDFIADQWADWLPIKDIRPTLTEGGYYTVRTPYGVRIIGLNNNPCFVHNFWLFYSLDYFMPQLQWLHDTLLQAEWDNERVHILAHVPSYDDSCFIGWTREYRKIVERFAHIIAGQFNGHSHVDEFNLYYRRDDPSRAVSVAWNGGSTTTFTKLNPNYKVFQFDPVTFEPLEQETWMYNLTDANLTPDQRPSWYRLYSFKSYYQLPDLSVDSLHRLVQRFAQSEQQLHRYWQAKQKYSDPLLQEGCTSTCLRNALCAIVRTEHDDERACELLYERAAQSEGHHHHHH | not soluble
MSLKLFCFKAIIFPIVGGSFNNGTNVFQSTVIVISLDGFRADYLYRGFTPNLLSLAERNVHVPFLIPSFPSITFPNHYTIVTGLYPESHGIVSNNFFDPVTGKQFVNSMPECNKDPTWWDKGEPIWVNAERNNVRSAVHMWPGNEVENHGYRPTYSDGFNFDTTLREKKDRILEWLDLPDKDRPQLLLAYAPHVDMVGHAFGPDSPELNIIIQEVDIVIGELIEGLKKRNIDKHVNIIFLSDHGMAPTSDNRLIWLDNMFNLSAVAHRDAWPLGGFRGESDLDDEYIYESLVNYSRSSLPSAENWNVYSKKDIPSRWHYSNNERIAPVWMIPDVGWSLVSMLDHSPELEYEPLGVHGYDNLSPVMRALFIASGSSFKNFKGKKLAPFQNTEIYGILSHILDLPAQPNNGTYEGALPLRRNRNSTKEWLLKDIEQAYSKLIEGHHHHHH | not soluble
MSLKLIKGLNLLRPCSDTPFLENAFVVIDGDEFLSVGTTEPEGEFEEVLDCGGKFALPGLINAHHHLYSALAVGMPPPAKTPLNFTQILEEVWWKLDLALDHDATQASFESGLIDSLKAGTTTVIDHHCSPSFIEGSLSLLGDTGKKLGIATGLAFEVTDRNGQELFERSLQENLDAAEKHSQDQELAALLGLHASFTLSEESLKKVAEVHSKRSNWGIHTHLSEDRADEEDARNRGHASVVERLDHFGLINQSAMLIHGVHSLESDAELIQKHKAHLVHNPTSNANNRIGMLSNQAAERMKPGLGTDGMQSNMIREAKEGMLIRSSHMSAGDAGVDYQAILFDHNPRIASAVFGRSIGRVEPGYRADLAIYDYHPRTEVHSDNVFGHVFFGLGEPCDVMSGGLMRVQNHLLQGNDEQAAKQEAAEQSRKLWQKMQEGHHHHHH | soluble
MSLKLLHERMMHSLARYPRQTAVVDEQDALSYEALELRIREFVAMLCALGVGQGQRILLWAHKSVDLVAVMQAALRLGVVYVPVDPLSPVSRLEKIAGDSQAVLVLCTAARLEELAGSALAQVRSVVLDDPASAGYWRNIDTGSSVVPTLAIQPDDLAYILYTSGSTGVPKGVALSHGNALAFVDWACERYCFQPGERFANHAPLHFDLSVLDIYCALNVGATVCLVPESIAFSPRLLTDFIRQHEISIWYSVPSVLMMMMQDGDLLSDIQDTLRVLLFAGEPFPVKHLRDLRAAYADVRLANLFGPTETNVCTAFEVGAIDPERVLPVPIGTAASGNQVWAQKPDGSRCAVGEEGELVVQGPTVMLGYFAKPAQEGPYKTGDMVRQRPDGNYEYLGRRDDMLKVRGNRIERGEVEAALLAHPQVSEAAVLVVGEGMNAQLWGVLVAHTRDALSLIDLKRHCAQRLPRYMIIDKVLCLDALPRNANGKVDRFALARQVEGHHHHHH | soluble
MSLKLSNERAEWQAQMKKSVISEERQRLARDLHDAVSQQLFAISMMTSAVLEHVKDADDKTVKRIRMVEHMAGEAQNEMRALLLHLRPVTLEGKGLKEGLTELLDEFRKKQPIDIEWDIQDTAISKGVEDHLFRIVQEALSNVFRHSKASKVTVILGIKNSQLRLKVIDNGKGFKMDQVKASSYGLNSMKERASEIGGVAEVISVEGKGTQIEVKVPIFPEEKGENERDSSIIDEGHHHHHH | soluble
MSLKLTRLSLWHIPLTSHETYYMAGGKTCDTTMTTLIRLDTDSGLSGWGEVCPIPHYLPAYADGVAPALTELAPIILGADPLGAEALMERCNAYLLGHDYAKSALDIALWDITARAAGLPLHALLGGRAMADMPLYHSITCVAPDEMARIARDAQAQGMTQFQVKLGADGDWQADVARLSHVREAVGPGPLVYGDWNCGSDSLTASRVGRAVAHLDVMLEQPCRTIQECAAVRDATGLPMKLDETAHDIPSLLDGHRRGCMDAVALKLSKFGGLSATRRARDLCLALGTRMCIEDTWGSDVTTAALLHLAAATPARGLMNTCDLSHYVGPRLAPDGPTRHMGRIAPPEGPGLGITPDMDVLGTPQLILDEGHHHHHH | soluble
MSLKMSDIAKMAGVSKAAVSFALNGKPGVSDETRKKIFKVIKDQGYEPLRKHKKGGVRKIASISLIIIQDRTGMMNRSYASLPFFDTLVSELSQNVSGAGGQMQIVNLDINHLHEGLNNEALQQSKASIVLATDLNQKQVQLINRKLRNVIFVDNYFEYIQADFVSIDNFQGAYRAGKFIVKKGYRKIGYVASNHAISNFLQRRSGFRKAMREANIQIPPEYVFSLNPTELRGSLPALFRQKNNWPEAIFCEDDYMALRLLNALTRQGIKVPQDIAVMGFDDISEDTMVIPELTTIHVPITQIVDQAINQLQCKVADTDWLPQKCFISTKLIERESEGHHHHHH | not soluble
MSLKNIEKELENLRTIFRSIGLIKFKPYFSYMGLFKDDTMFGLYKEKCLYLRKSDQYLQEIKDTIPIHFLSDHKISRQSKIFYLVPQHIIENISSYSHWITSSISEYQRLRSKIRTENQTKIRILLNMNINIERLLARVNINTVDEFKQVGETKAFVRLIQQGFEVNQLLLFKLYGALQHKYIYMLSLEEKKRLLEQADSALYDAGLRKRFTVEGHHHHHH | soluble
MSLKNQWNNILSIGEKVLNGEKITADEALTLSKSNGSDIFLLCSFANKLREKFNGNHVDLCSVINAKSGNCSEDCAFCAQSAHHKANVSCYPLLNEDKILEMAKQREAYGARHCDIATSGLGYTGDEKDFQTILKAFKKMKENTNLKLCACLGTLTEKAMNSLAAVGVERYNHNLETAKSFYKNIVSTHGYDERIKTINYAKNAKMEVCSGMIVGLGETMEQRIEHALLLRDLNVDAVPVNILNPVKGTKLENAKPLSPMEIIKTFAIIRFILPDKIIRYAGGREKNLRSLQPLGFLSGLNGMLIGNYLTTNGQSVNDDFNMLKDLELEYEGHHHHHH | soluble
MSLKPASVIIMDEHPIVRMSIEVLLGKNSNIQVVLKTDDSRTAIEYLRTYPVDLVILDIELPGTDGFTLLKRIKSIQEHTRILFLSSKSEAFYAGRAIRAGANGFVSKRKDLNDIYNAVKMILSGYSFFPSETLNFISNTRTPKGGHHDMPLSNREVTVLRYLANGMSNKEIAEQLLLSNKTISAHKANIFSKLGLHSIVELIDYAKSHELLEGHHHHHH | soluble
MSLKPLSSPLQQYWQTVVERLPEPLAEESLSAQAKSVLTFSDFVQDSVIAHPEWLTELESQPPQADEWQHYAAWLQEALCNVSDEAGLMRELRLFRRRIMVRIAWAQTLALVTEESILQQLSYLAETLIVAARDWLYDACCREWGTPCNAQGEAQPLLILGMGKLGGGELNFSSDIDLIFAWPEHGCTQGGRRELDNAQFFTRMGQRLIKVLDQPTQDGFVYRVDMRLRPFGESGPLVLSFAALEDYYQEQGRDWERYAMVKARIMGDSEGVYANELRAMLRPFVFRRYIDFSVIQSLRNMKGMIAREVRRRGLTDNIKLGAGGIREIEFIVQVFQLIRGGREPSLQSRSLLPTLSAIAELHLLSENDAEQLRVAYLFLRRLENLLQSINDEQTQTLPSDELNRARLAWAMDFADWPQLTGALTAHMTNVRRVFNELIGDDESETQEESLSEQWRELWQDALQEDDTTPVLAHLSEDDRKQVLTLIADFRKELDKRTIGPRGRQVLDHLMPHLLSDVCAREDAAVLSRITALLVGIVTRTTYLELLSEFPAALKHLISLCAASPMIASQLARYPLLLDELLDPNTLYQPTATDAYRDELRQYLLRVPEDDEEQQLEALRQFKQAPVLRIAAADIAGTLPVMKVSDHLTWLAEAMIDAVVQQAWVQMVARYGKPNHLNEREGRGFAVVGYGKLGGWELGYSSDLDLIFLHDCPMDAMTDGEREIDGRQFYLRLAQRIMHLFSTRTSSGILYEVDARLRPSGAAGMLVTSAEAFADYQKNEAWTWEHQALVRARVVYGDPQLTAHFDAVRREIMTLPREGKTLQTEVREMREKMRAHLGNKHRDRFDIKADEGGITDIEFITQYLVLRYAHEKPKLTRWSDNVRILELLAQNDIMEEQEAMALTRAYTTLRDELHHLALQELPGHVSEDCFTAERELVRASWQKWLVEEEGHHHHHH | soluble
MSLKQAMGYLRQSTTKQQSLAAQKQTIKVLAEKHNIQHITFYSDKQSGRTDKRNGYQQITELIQQGQCDVLCCYRLNRLHRNLKNALKLMKLCQTYHVHILSVRDGYFDMNKAFDRLKLNIFISLAELESDNIGEQVKNGLREKAKQGKLITTHAPFGYHYHNGTFTIDTVKSPTVKAVFNYYLQGYGYKKIAQYLEADNKFINRKPYQVRNIILNPNEGHHHHHH | not soluble
MSLKQPAVFFDKNVSTIEENNSLLDGQTDVPVLDPHDLLVEVQAVSVNPVDTKLRQTGVASKIKILGYDAFGIVKNTGKDVTRFHAGDRVYYAGTTQRPGSNEKFQAVDERLVGRAPEKLNKSEIAAMPLTSITAYEILVDQLGLRFQNHAADGKNMLVINGAGGVGSVLLQMAAYLGINLSVTAHSSESIEWLKKYSVDKIYDYENIDETLADQKFDYIVFLYDPALYWDIAIKHIKPYGQLVSIVGTNKPLNMGPLKNIAVQFKWEYMFAKSDFNHNILSQGQALDKIAILLDAGILKTTLNKTFDLINAENLRQAYKLVESGRMQGKVVLNGPFDKALKEGHHHHHH | soluble
MSLKRADLSIVPLTFKHPIVTAHAVLSVRRTLILRLETVDGVVGYGEGAAFETPWYTEETTQSMIDTSKLILNLLKGMTVTTDVFPNLVSSIIGQRMAKAMWESALWEIEATRANKSLKSFISAGDSVSCGRTIGIGLLNQTMKSIETALADGFERIKLKASPNELLPALREIRAVFPDAPLMIDLNGSASDQPMEWFEQLDTYRLLMIEQPYPSRQFTKSAALQAKLTTPICLDESITSYDDVETMAQLGAGKIVNIKPARVGGLSEAFHIRKHGTPYWVGGMYESGIGRYHTLLFASLSGASFPADMSGTSAYFEQDLLDIPLEVENGKLTLPDSVQPDWNVIERLREEVITLQTEGHHHHHH | soluble
MSLKRIRPLDPDVVNKIAAGEIIVAPMHALKELIENAVDAGSTSIEVLVKDGGMKLLQITDNGHGIDRDDLPILCERFTTSKLKQFEDLSSIGTYGFRGEALASISHIAHLTVTTKTAGSSCAWRAHYSDGKLVPPKPGQSAEPKATAGRGGTQITVEDLFYNVPTRRRAFRSASEEYAKILDVVGRYAVHCSGVAFSCRKHGESGAGISTPAAANTTDRIRQIHGSAVANELVEFQVEDSKLGFRSSGLVTNANYHVKRTVIMLFINHRSVESTAIKRAVEQTYSSFLPKGGHPFVYIDLEIEPHRVDVNVHPTKREVNFLNEDDIIESICSEIRSKLAQEGHHHHHH | soluble
MSLKSAKELLFLALGGSGEIGMNVNLYCCDGKWLMVDLGMTFADPYYPGIDLVFADLEFIEERLDDLVGIVLTHAHEDHIGAVPYFAQDLGVPLYATPFTAKLVHEKLLEAGIEKEVELNVIDHLDPFQLGPFGLRYIPLAHSIAEGNALLIDTPHGRIFHTGDWKLDDEPRIGTPATEEELTAIGDEGVLALVCDSTNVFNPNPSGSEGAVRAGLLEAVAAQKGRRVVVTTFASNVARLQTLGEVAEATGRRVCVAGRSLDRIIRVAQSCGYLKNFPETVHMDDAMDLPRGELLVLATGGQGEPRAALARIAADQHPVKLEKGDAVLFSTRQIPGNELAIGRVQNALVEKGVRIVTDRQSMIHVSGHPGRPELMALYEWLRPEILVPVHGEIRHMAEQAQLGLDEGIPKAIVQKNGDLIRLAPNGPKKLSEEGHHHHHH | soluble
